The text below walks through data of patent publication US20150232562A1 (Ablynx, published 2015).

The test deals with T1, recombinant human ErbB2/Fc chimera (human, UniProt P04626 23-652).
T1 construct: bought from R&D Systems; also called rhErbB2-Fc; rhErb2-Fc; Fc part of the bought chimera not given; not described
Description: ELISA, coated ErbB2/Fc.

Positions count from the first letter of the chain named.

B1: 13G71/1-124 (VHH)
VHH: EVQLVESGGGLVQAGGSLRLSCAASGRAFSSYAMGWFRQAPGKERDFVAAITSSGSTNYADSVKGRFTISRDNAKNTVYLQMNSLKPEDTAVYYCGARVNYAAYSRLEHDYHYWGQGTQVTVSS
notes: C-term myc-His6 tag
For the molecule B1, the binding result is recorded as “binds”.

B2: 13G101/1-123 (VHH)
VHH: EVQLVESGGGLVQPGDSLRLSCSASEGTLSRSRVAWFRQAPGKEREFVTVISGVGTSYADSVKGRFTISRDDAKNTVYLQMNSLKAEDTAIYYCAADFRSTWLSSSGSSYTYWGQGTQVTVSS
notes: C-term myc-His6 tag
Turning to B2, the binding result is on record as “binds”.

B3: 14H12/1-125 (VHH)
VHH: EVQLVESGGGLVQAGGSLRLSCIASERTFSSAGVGWFRQAPGKERDFVAAISWNGVTIYYADSVKGRFTISRDNAKNTVYLQMNSLKPEDTAVYYCAARINYSVLTTTSSSYHYWGQGTQVTVSS
notes: C-term myc-His6 tag
B3: the binding result is reported as “binds”.

B4: 46D4 (VHH)
VHH: EVQLVESGGGLVQPGGSLRLSCAASGFIFDDYAMSWVRQAPGKGLEWVSSINWSGTHTDYAEDMKGRFTISRDNAKKTLYLQMNSLQSEDTAVYYCAKGWGPAVTSIPVATLGTQVTVSS
notes: C-term myc-His6 tag
With B4, the binding result was “binds”.

B5: 22C712/1-123 (VHH)
VHH: EVQLVESGGGLVQAGGSLGLSCAASGRTFSNYAMGWFRQAPGKEREFVAGISWSGGHTFYADSVKGRFTISRDNTKNTVYLQMNSMRPEDTAVYYCAARLSSVAVASTRYDYWGQGTQVTVSS
notes: C-term myc-His6 tag
With B5, the binding result is on record as “binds”.

B6: 11A22/1-122 (VHH)
VHH: EVQLVESGGGLVQAGGSLRLSCAASGRTFSSYAMAWFRQAPGTEREFIAGIRWSDGSTYYADSVKGRFTISRDNAKNTVYLQMNSLKPEDTAVYYCAADFYVSTLAHEYDYWGQGTQVTVSS
notes: C-term myc-His6 tag
Regarding B6, the binding result is “binds”.

B7: 12E11/1-122 (VHH)
VHH: B6 VHH with T43K, I48V, A49G, N77I
notes: C-term myc-His6 tag
Regarding B7, the binding result is “binds”.

B8: 12D44/1-122 (VHH)
VHH: B6 VHH with E1K, D73A, S85G
notes: C-term myc-His6 tag
With B8, the binding result is reported as “binds”.

B9: 11A111/1-126 (VHH)
VHH: EVQLVESGGGLVQAGGSLGLSCAAAGRTFSSSLMGWFRQAPGKEREFVAAITDNGGSTYYADSVKGRFTISRDNAKNSVYLQMNSLKPEDTAIYYCAARRSGYYSLSTSPHQYAYWGQGTQVTVSS
notes: C-term myc-His6 tag
In the case of B9, the binding result is on record as “binds”.

B10: 22B101/1-123 (VHH)
VHH: EVQLVESGGGLVQTGGSLRLSCAASGPTFSDYAIGWFRQAPGKEREFVAAISSSGISTIYGDSVKGRFDISRDNAKNTVYLQMNRLKPEDTAVYYCAARLFMATPNQGQYYYWGQGTQVTVSS
notes: C-term myc-His6 tag
As to B10, the binding result is recorded as “binds”.

B11: 13E111/1-124 (VHH)
VHH: EVQLVESGGGLVQAGSSLRLSCALSGRTFSDYAIGWFRQAPGKEREFVAAISGWSGGTTNYADSVKGRFTISRDNGKNTVDLRMNSLKPEDTAVYYCAARPAVVHTRKESYPYWGQGTQVTVSS
notes: C-term myc-His6 tag
For the molecule B11, the binding result is reported as “binds”.

B12: 13G74/1-125 (VHH)
VHH: EVQLVESGGGLVQAGGSLRLSCATSGRTFSTYASMGWFRQTPGKEREFVAAITSSGSTNYADSVKGRFTISRDNAKNTVYLQMNSLKPEDTAVYYCGARVNYAAYSRLEHDYHYWGQGTQVTVSS
notes: C-term myc-His6 tag
For the molecule B12, the binding result is recorded as “binds”.

B13: 14H61/1-122 (VHH)
VHH: EVQLVESGGGLVQAGGSLRLSCAASGRTFSRFAMGWFRQAPGKEREFVAAVRWSDDYTYYADSVKGRFTISRDNAKNTVYLQMNSLSPEDTAVYYCAADEILATLPHEYDYWGQGTQVTVSS
notes: C-term myc-His6 tag
As to B13, the binding result is listed as “binds”.

B14: 11A71A/1-116 (VHH)
VHH: EVQLVESGGGLVQPGGSLRLSCAASGNIDGIITMGWYRQRPGKPREWVGTINSGGDTNYAGSVKGRFTIARDDAKNTMYLQMNGMKPEDTAVYYCKMNRAGIYEYWGQGTQVTVSS
notes: C-term myc-His6 tag
Consider B14, for which the binding result is on record as “binds”.

B15: 11A101/1-120 (VHH)
VHH: EVQLVESGGGLVQAGGSLRLSCAASGRTFNAMGWFRQAPGKEREFVAAISRSPGVTYYADSVKGRFTTSRDNAKNTVYLQMNDLKPEDTAVYYCAADFYLATLAHEYDYWGQGTQVTVSS
notes: C-term myc-His6 tag
With B15, the binding result is “binds”.

B16: 27B3 (VHH)
VHH: EVQLVESGGGLVQAGGSLTLSCTASETTVRIRTMAWYRQPPGNQREWVATIGSNGFATYPDSVKGRFTISRDNAKNTVYLQMNSLKPEDTAVYYCRDINRDIWGQGSQVTVSS
notes: C-term myc-His6 tag
Regarding B16, the binding result is recorded as “binds”.

B17: 27E5 (VHH)
VHH: B16 VHH
notes: C-term myc-His6 tag
As for B17, the binding result is listed as “binds”.

B18: 30D10 (second entry, SEQ ID NO: 2204) (VHH)
VHH: B16 VHH
notes: C-term myc-His6 tag
For the molecule B18, the binding result was “binds”.

B19: 27D6 (VHH)
VHH: B16 VHH
notes: C-term myc-His6 tag
On to B19, for which the binding result is given as “binds”.

B20: 13G93/1-123 (VHH)
VHH: EVQLVESGGGLAQAGDSLRLSCVDSGSSFSAYAMGWFRQAPGKEREFVAAVSWDGRNTYYADSVKGRFTISRDNAKNTLYLQTTSLRPEDTGVYYCAEDKQSGVSVNPKYAYWGQGTQVTVSS
notes: C-term myc-His6 tag
Turning to B20, the binding result was “binds”.

B21: 22B12/1-124 (VHH)
VHH: EVQLVESGGGLVQAGGSLRLSCAASGRTFSSYAMAWFRQAPGKEREFVAGINKSGGITHSADSVKGRFTISRDNAKNTVYLQMNSLKPEDTAVYYCAADAYTVIATLPHEYDYWGQGTQVTVSS
notes: C-term myc-His6 tag
For B21, the binding result was “binds”.

B22: 12D51/1-120 (VHH)
VHH: EVQLVESGGGLVQPGGSLRLSCAASGSAFSIKSMGWYRQAPGKQRELAAVIISSGTTTYADSVKGRFTISRDSAKNTVYLQMDSLKPEDTAVYVCNAVYVSTWGNGYDYWGQGTQVTVSS
notes: C-term myc-His6 tag
Consider B22, for which the binding result is on record as “binds”.

B23: 21A92/1-127 (VHH)
VHH: EVQLVESGGGQVQAGGSLRLSCTESGRAFNTRAMGWFRQAPEKEREFVAGITMSGFNTRYADSVKGRFTISRDNAKGTVYLQMSSLKPEDTAVYYCAADSITDRRSVAVAHTSYYYWGQGTQVTVSS
notes: C-term myc-His6 tag
With B23, the binding result was “binds”.

B24: 13F71/1-123 (VHH)
VHH: EVQLVESGGGLVQAGGSLRLSCVASGRTFSNYALAWFRQAPGKEREFVAAINWRSGGSTYYADSVKGRFTISRDNAKNTVYLQMNSLKPEDTAVYYCAADLIVATLPGEYDYWGQGTQVTVSS
notes: C-term myc-His6 tag
As for B24, the binding result was “binds”.

B25: 11A13/1-125 (VHH)
VHH: EVQLVESGGGLVQAGDSLRLSCVASGGTFGSYAMGWFRQAPGKEREFVATIDWSGDTAFYADSVKGRFTISRDIANDVVYLQMNSLEPEDTAVYYCARNRQSGVASENLRLYTYWGQGTQVTVSS
notes: C-term myc-His6 tag
Turning to B25, the binding result is recorded as “binds”.

B26: 11B42/1-123 (VHH)
VHH: EVQLVESGGGLVQAGDSLRLSCAASGFTFSNHIMGWFRQAPGKERELIAHITWNGGSTYYADSVKGRFAISRDNALNTVYLQMNSLKPEDTAVYYCAARPSYSTNNVKSYRYWGQGTQVTVSS
notes: C-term myc-His6 tag
With B26, the binding result is listed as “binds”.

B27: 22B910/1-121 (VHH)
VHH: EVQLVESGGGLVQPGGSLPLSCAASGSIFRMNDMGWYRQAPGKQRERVATLTSAGNTNYADSVKGRFTISGDDARNTVYLQMNSLNPEDTAVYYCNAKVVVAVEGAKYDYWGQGTQVTVSS
notes: C-term myc-His6 tag
Consider B27, for which the binding result is listed as “binds”.

B28: 21A81/1-122 (VHH)
VHH: EVQLVESGGGLAQAGGSLRLSCAVFGRSRYGMAWFRRAPGKEREFVAGIAWNGASIGSADSVRGRFTISRDNSENTVYFEMGSLKPEDTAVYYCAICRISWCAGAESDYGYWGQGTQVTVSS
notes: C-term myc-His6 tag
Turning to B28, the binding result is “binds”.

B29: 21A61/1-125 (VHH)
VHH: EVQLVESGGGLVQAGDSLRLSCVASGDSFNTYTMGWFRQAPGKEREFVAAIRWSGGTTFYGDSVKGRFTISRDYAKNTWYLQMNTLKPEDTAAYYCAAVATYSRNVGSVRNYDYWGQGTQVTVSS
notes: C-term myc-His6 tag
As to B29, the binding result is “binds”.

B30: 47G11 (VHH)
VHH: EVQLVESGGGLVQPGGSLRLSCAASGRIFYPMGWFRQAPGKEREFVAAIGSGDIITYYADSVKGRFTISRDNAKNTVYLQMNSLKPEDTAVYYCASSRDYSRSRDPTSYDRWGQGTQVTVSS
notes: C-term myc-His6 tag
Take B30: the binding result is listed as “binds”.

B31: 12C52/1-118 (VHH)
VHH: EVQLVESGGGLVQAGGSLRLSCAVSGGTFESDTMAWFRQAPGKEREFVARVSWIRTTYYSDSVKGRFTISKDNAKNTVYLQMNSLKPEDTAVYYCAAQTLGRSLYDYWGQGTQVTVSS
notes: C-term myc-His6 tag
For the molecule B31, the binding result is on record as “binds”.

B32: 13G111/1-123 (VHH)
VHH: EVQLVESGGGLVQAGGSLRLSCAASGRTFSSYAMGWFRQAPGKERAFVAAIRWSGGNTYYADSVKGRFTISRDNAKNTVYLQMNSLKPEDTAVYYCAADTFTLSTLSHEYDYWGQGTQVTVSS
notes: C-term myc-His6 tag
With B32, the binding result was “binds”.

B33: 13G41/1-121 (VHH)
VHH: EVQLVESGGGLVQPGGSLTLSCVGSGRRFSADVMGWYRQAPGKQREFVASISSGSAINYADSVKGRFTVSRDNAQNTVYLQMNSLKIEDTGVYYCNARRIVNVEGAYRDYWGQGTQVTVSS
notes: C-term myc-His6 tag
In the case of B33, the binding result is given as “binds”.

B34: 12C61/1-126 (VHH)
VHH: EVQLVESGGGLVQAGGSLRLSCAASGRTFSSNAMAWFRQAPGNERELVSAIGWSGASTYYIDSVEGRFTISRDNAKNTVYLQMNSLKPEDTAVYYCAASRYSGGVATARRSEYHYWGQGTQVTVSS
notes: C-term myc-His6 tag
For B34, the binding result is on record as “binds”.
